The values below come from patent US20240076403A1 (SIMCERE ZAIMING PHARMACEUTICAL, published 2024).

For assay [1], the target named is T1, monkey HER2-His protein (Sino Biological, Cat. No. 90295-C08H) (monkey).
T1 construct: also called monkey HER2 protein
Briefly: ELISA, 0.00001 nM. (In general: An ELISA detects its analyte on a solid surface through an enzyme-linked reagent.)

Assay [2] deals with T1, monkey HER2-His protein (Sino …). Briefly: ELISA, 100 nM.
The target is the same in assay [3]. The experiment in a line: ELISA, 0.0001 nM.
For assay [4] the target is unchanged. Briefly: ELISA, 0.001 nM.
Assay [5] has the same target. The experiment in a line: ELISA, 10 nM.
The target is the same in assay [6]. Briefly: ELISA, 1 nM.
Assay [7] has the same target. Briefly: ELISA, 0.1 nM.
The target is the same in assay [8]. Briefly: ELISA, 0.01 nM.
For the next assay, the target named is T2, monkey HER2-His protein (monkey).
T2 construct: Bought protein; also called monkey HER2 protein
The experiment in a line: SPR, antibody captured on Protein A chip, monkey HER2-His analyte, 1:1 model. (In general: Surface plasmon resonance follows binding to a sensor surface in real time, without labels.)

Assay [9] deals with T3, recombinant human HER2-His protein (human, UniProt P04626 23-652, limits assumed).
T3 construct: also called human HER2 protein; not shown: His tag
The experiment in a line: SPR, antibody captured on Protein A chip, human HER2-His analyte, 1:1 model. On the procedure: The sample and running buffer were HBS-EP+ (10 mM HEPES, 150 mM NaCl, 3 mM EDTA, 0.05% surfactant P20) (GE Healthcare; BR-1006-69). The flow cell was set at 25° C. The sample block was set at 16° C. Both were pretreated with the running buffer. In each cycle, first, the antibody to be tested was captured using the Protein A chip, and then a single concentration of HER2 antigen protein was injected. The association and dissociation processes of the antibody with the antigen protein were recorded, and finally, the chip was regenerated using Glycine pH 1.5 (GE Healthcare; BR-1003-54). The association was determined by injecting different concentrations of recombinant human HER2-His in the solution and maintaining for 240 s, wherein the flow rate was 30 μL/min, and the protein was diluted in a 1:1 dilution ratio from 200 nM (see detailed results for actual concentrations tested) to obtain 5 concentrations in total. The dissociation phase was monitored for up to 600 s and triggered by switching from the sample solution to the running buffer. The surface was regenerated by washing with 10 mM glycine solution (pH 1.5) at a flow rate of 30 μL/min for 30 s. The difference in bulk refractive index was corrected by subtracting the responses obtained from the goat anti-human Fc surface. Blank injections were also subtracted (=double referencing). To calculate the apparent KD and other kinetic parameters, the Langmuir 1:1 model was used.

B1: Tab050 (2C4 human IgG1, Pertuzumab) (antibody, V domains shown)
VH: EVQLVESGGGLVQPGGSLRLSCAASGFTFTDYTMDWVRQAPGKGLEWVADVNPNSGGSIYNQRFKGRFTLSVDRSKNTLYLQMNSLRAEDTAVYYCARNLGPSFYFDYWGQGTLVTVSS
VL: DIQMTQSPSSLSASVGDRVTITCKASQDVSIGVAWYQQKPGKAPKLLIYSASYRYTGVPSRFSGSGSGTDFTLTISSLQPEDFATYYCQQYYIYPYTFGQGTKVEIKR
notes: control antibody, human IgG1
As for B1, the OD450 in [1] came out at 0.05; in [2], 2.42; in assay [3], 0.06; in assay [4] it was 0.06; in assay [5], 2.15; in assay [6], 2.04. In addition, the OD450 in assay [7] is 1.11.

B2: Tab048 (FRP5 human IgG1) (antibody, V domains shown)
VH: QVQLQQSGPELKKPGETVKISCKASGYPFTNYGMNWVKQAPGQGLKWMGWINTSTGESTFADDFKGRFDFSLETSANTAYLQINNLKSEDMATYFCARWEVYHGYVPYWGQGTTVTVSS
VL: DIQLTQSHKFLSTSVGDRVSITCKASQDVYNAVAWYQQKPGQSPKLLIYSASSRYTGVPSRFTGSGSGPDFTFTISSVQAEDLAVYFCQQHFRTPFTFGSGTKLEIKR
notes: control antibody, human IgG1
With B2, the OD450 in [1] is 0.05; in assay [2], 2.35; in [3] it was 0.05; in assay [4], 0.11; in [5] it was 2.04; in [6], 2.24. Further, the OD450 in [8] came out at 0.52; in [7], 1.83.

B3: Tab048 (FRP5 human IgG1) (antibody, V domains shown)
VH: QVQLQQSGPELKKPGETVKISCKASGYPFTNYGMNWVKQAPGQGLKWMGWINTSTGESTFADDFKGRFDFSLETSANTAYLQINNLKSEDMATYFCARWEVYHGYVPYWGQGTTVTVSS
VL: DIQLTQSHKFLSTSVGDRVSITCKASQDVYNAVAWYQQKPGQSPKLLIYSASSRYTGVPSRFTGSGSGPDFTFTISSVQAEDLAVYFCQQHFRTPFTFGSGTKLEIKR
notes: Control antibody in human IgG1 form
The term Kd denotes the constant that tells how readily two partners part at equilibrium. A word on the koff: it is a measure of how fast the partners let go of each other. By kon is commonly meant the rate constant with which the complex forms. For B3, in the assay with monkey HER2-His protein, the Kd amounted to 0.617 nM, the koff was found to be 0.000118 s⁻¹ and the kon is 191000 M⁻¹ s⁻¹. Moreover, in [9], the Kd was 0.337 nM, the koff came out at 7.45e-05 s⁻¹ and the kon turned out to be 221000 M⁻¹ s⁻¹.
